Laboratory results from PMC6668372, “Trypanosoma brucei centrin5 is enriched in the flagellum and interacts with other centrins in a calcium‐dependent manner” (FEBS Open Bio, 2019).

T1: TbCentrin3, purified for ITC (Trypanosoma brucei, UniProt Q38AA2 1-165)
T1 chain: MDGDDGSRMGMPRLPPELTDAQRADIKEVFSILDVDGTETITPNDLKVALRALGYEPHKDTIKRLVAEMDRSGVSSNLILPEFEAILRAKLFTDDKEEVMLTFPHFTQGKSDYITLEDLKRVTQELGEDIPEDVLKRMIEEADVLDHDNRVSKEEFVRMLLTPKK

T2: TbCentrin4, purified for ITC (Trypanosoma brucei, UniProt Q57WF6 1-149)
T2 chain: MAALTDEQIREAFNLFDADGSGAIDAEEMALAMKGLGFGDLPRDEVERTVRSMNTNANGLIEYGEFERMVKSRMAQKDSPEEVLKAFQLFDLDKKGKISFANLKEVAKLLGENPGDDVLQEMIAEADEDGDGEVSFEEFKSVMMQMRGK

B1: TbCentrin3, purified for ITC (natural protein, Trypanosoma brucei, UniProt Q38AA2 1-165, looked up)
chain: T1 chain
notes: TbCentrin3 of Trypanosoma brucei, Tb927.10.8710; Cloning, tag and host of this protein are not described; also called Tb927.10.8710; source: purified and equilibrated as above (gel filtration Sephadex G-75)
B2: TbCentrin1, purified for ITC (natural protein, Trypanosoma brucei, UniProt Q584G1 1-182, looked up)
chain: MSSSRPATGNRLAVPIRTNLPVPAPRKRRFELTDEQRQEIREAFELFDSDKNGLIDAHEMKVSMRALGFDAKKEEVLRMMQDCAARDQHNNPLMDLAGFTDLMTERFAQRDPRQEMIKAFQLFDENNTGKISLRSLRRVARELGENMTDEELQAMIDEFDTDQDGEINLDEFLAIMLEDDDY
notes: TbCentrin1 of Trypanosoma brucei, Tb927.04.2260; Cloning, tag and host of this protein are not described; also called Tb927.04.2260; source: purified and equilibrated as above (gel filtration Sephadex G-75)
B3: TbCentrin4, purified for ITC (natural protein, Trypanosoma brucei, UniProt Q57WF6 1-149, looked up)
chain: T2 chain
notes: TbCentrin4 of Trypanosoma brucei, Tb927.07.3410; Cloning, tag and host of this protein are not described; also called TbCentirn4; Tb927.07.3410; source: purified and equilibrated as above (gel filtration Sephadex G-75)
B4: Trypanosoma brucei centrin5 (TbCentrin5), purified, His-tag removed (natural protein, UniProt Q382E7 1-186, looked up)
chain: MEGPKLKGAARCAAVEKVESKTQLSIAISEKHKAQLREAFDFFDSDGTGRINAQDVKVAFCALGYEVGKEELTHLLRQVGASTTGVIDFNDFYSVIIAKIMQRENRSEAIRAFKLIDTGEKGYINVDDLRPIAASLQMNLTDDELAEMVLFAHPSATYSKADTEMKDPLTVSEEEFLKLMNRAHVY
notes: TbCentrin5 of Trypanosoma brucei, Tb927.11.13900, full-length gene amplified from genomic DNA; 186 amino acids, about 20 kDa calculated; also called centrin5 of T. brucei; Tb927.11.13900; source: E. coli BL21 (DE3), purified (TEV digestion, gel filtration Sephadex G-75); not shown: His-tag, N-terminal, cleaved

Legend:
[1] = molecular target: B4; assay: ITC; iTC200, 16 °C, 20 mM Tris/HCl pH 7.0, 100 mM NaCl; 50 uM TbCentrin1/2/3/4 in the cell, 0.5 mM TbCentrin5 in the syringe; without EGTA treatment; conditions: both partners purified
[2] = molecular target: T1, TbCentrin3, purified for ITC; assay: ITC
[3] = molecular target: T2, TbCentrin4, purified for ITC; assay: ITC
[4] = molecular target: the molecule itself; assay: SEC; gel filtration on Superdex G-75 column, elution at about 66 mL corresponding to about 36 kDa; SDS/PAGE showed no disulfide bond

Row | Binder | Kd [1] [µM] | Kd [2] [µM] | Kd [3] [µM] | stoichiometry N [4]
1 | B1 | 52 |  |  | 
2 | B2 | 105 |  |  | 
3 | B3 | 12 |  |  | 
4 | B4 |  | 56 | 16 | 2
